Reference: the RNAGym collection of RNA variant scans (doi:10.1073/pnas.2313332121)

B1: TPR t1 (parent)
chain: GACCAAUCUGCCCUCAGAGCUCGAGAACAUCUUCGGAUGCAGAGGAGGCAGGCUUCGGUGGCGCGAUAGCGCCAACGUCCUCAACCUCCAAUGCAUCCCACCACAUGAUGAUGCCUGAAGAGCCUUGGUUUUUUG

Variants of: B1
Assay: polymerase ribozyme fitness, log enrichment relative to wild type (log ratio); higher = more active; in vitro selection for triplet polymerase activity
Procedure, shortened: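 Mutant libraries for each subunit of a heterodimeric triplet polymerase ribozyme were made by PCR and then transcribed. Each library underwent one round of in vitro selection in triplicate: annealing with a biotinylated primer, the partner subunit and triplets, frozen incubation at −7 °C, gel excision of extended constructs, streptavidin-bead capture and RT-PCR. Input and output libraries were Illumina-sequenced, and only genotypes with ≥10 input reads and ≥1 read per output were kept. Fitness is the logarithm, base 2, of genotype enrichment over wild-type enrichment, computed from inverse-variance-weighted replicate averages.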

Row | Variant | polymerase ribozyme fitness (log ratio)
1 | C11A C13G G36U C73A | -4.01
2 | G10A A43C C123A U125C | -1.73
3 | C11A A37C A50U | -2.75
4 | C11A C70U G117A | -6.1
5 | U9G U14A | -0.133
6 | G10A U33C C86A A111U | -6.34
7 | G10A G110A | -1.12
8 | G10A C76G G120A | 1.28
9 | G10A C73A | -0.58
10 | G10U G44C C88U A105G G120C | -3.52
11 | G10C G71U C114A A118C | -6.14
12 | C11A C12A A41G C89U | -2.15
13 | U9G U109A | -3.09
14 | U9G G10U C104A | -1.09
15 | G10C C89U U129C | -2.54
16 | G10U A50C C73A U78G A90G | -0.824
17 | G10A G19C G63C U112G U133G | -5.97
18 | G10A C104U | -0.557
19 | G10A A16C A50G A95C | -3.07
20 | G10U C73G U92A C101U C104U | -4.21
21 | U9G U38G A105U | -2.64
22 | G10A G52U C72G C99U | -4.47
23 | U9G C94A U125G | -1.1
24 | C11A A111U | -4.43

Row | Variant | polymerase ribozyme fitness (log ratio)
25 | G10C A41C G48A A74U C101U | -3.49
26 | U9G C99U | -2.87
27 | U9G C40U C114G G122A C123G | -5.42
28 | G10U A27G U106C C123A | 0.556
29 | C11A A100C | -2.81
30 | G10U G77A U106G | -2.38
31 | G10A C13G G69A U78C | -3.65
32 | G10U U112A C114U | -1.01
33 | U9G G71U A84G C89G U112G | -7.39
34 | C11A A50G U126A | -3.95
35 | G10A C49A U78C U116A G120U | -0.56
36 | C11A C56U A105U | -3.49
37 | G10C G63U | -2.32
38 | G10U G60C C79U G120C | 0.981
39 | C11A A119C C124G | -4.46
40 | G10U C20A A50C C102A C114U | -6.03
41 | U9G G10A U14G A46G G48A A66G C70U | -4.44
42 | C11A C124U | 0.668
43 | G10A G51U G71U C101A | -6.07
44 | G10A U55G G69C | -1.36
45 | C11A C56A G69A A84G A121C | -4.27
46 | G10A C85U | -0.189
47 | U9G G57A U112A C123U G128A | -3.19
48 | G10U G35U A66U G69U G93A | -5.9

Row | Variant | polymerase ribozyme fitness (log ratio)
49 | G10U C73U U92A C101U C104U | -3.23
50 | U9G U14C G51A C56U C80A | -3.92
51 | G10C C62U | -0.917
52 | U9G C56U C62U C94U U96A | -1.52
53 | G10C A27U U87G | -3.55
54 | G10U A18C | -2.58
55 | G10U C53A C56A G61U A90C | -5.6
56 | G10U C34A G44A C72A | -5.99
57 | C11A C40G U129A | -3.42
58 | U9G G42A C53G | -2.45
59 | G10A C49A | 0.131
60 | G10A C11U C40U C72G C104G C124U U133C | -5.5
61 | G10A A74G C97U C101U A105G U130G | -5.19
62 | G10U G39U G63U G120A | -0.0221
63 | C11A G42C C72A | -1.79
64 | U9G G60U C62U C72G | -2.01
65 | U9G G63C | -0.0322
66 | G10U G61U | 0.128
67 | U9G G63C G71U C79A | -5.4
68 | G10A C11A G42U G48A G63A A66U A91G C115U | -6.69
69 | C11A C70A A90G | -3.13
70 | U9G G45U | -0.0404
71 | G10C A27C U55C C70U | -7.04
72 | G10A C56A | 0.127

Row | Variant | polymerase ribozyme fitness (log ratio)
73 | G10A U55G | -0.319
74 | C11A A26G G71C C101A C114U | -6.79
75 | C11A C20U C73A A118U U133A | -2.94
76 | G10A G52A G60A C79A C115A | -2.07
77 | C11A C70A | -2.06
78 | G10U G77A G93U U129C | -2.07
79 | C11A A26U C72A | -5.37
80 | C11A C88A | -2.15
81 | U9G U38G C70U A105U | -4.46
82 | G10C G51A U106A U112A | -5.36
83 | U9G C70G | -2.02
84 | U9G C70A | -1.08
85 | G10A G52C | -0.471
86 | C11A C15G U21G G63U A90U G93U C115U C124U G127U | -6.26
87 | U9G C56U C114A C115G | -5.74
88 | G10C C15A A50U C115U | -5.25
89 | G10U G51A G61U A100C G113A G120A | -4.29
90 | G10A A37G G61C C85G C86A G113A C124G U130A | -5.79
91 | C11A A37G G60U C101A U131G | -2.57
92 | C11A C13U A41U | -2.84
93 | G10A G69U G93A G110A A121U U132C | 0.47
94 | G10C G36A | -1.22
95 | G10U U14A U116C A121C | -4.9
96 | C11A C49U C73A C86U A95G U106G C123U | -0.375

Row | Variant | polymerase ribozyme fitness (log ratio)
97 | G10U G48A G93A C114G | -5.11
98 | C11A G17U G61C A84G C124A | -4.74
99 | G10U C20A C40U A46G C62U C82U C114A | -3.36
100 | G10C G61U | -1.1
101 | G10A A26C G36U G45C G51U C70U C79A C98U C123U G127U | -8.21
102 | G10C U14C C15U C94U C97U U112A | -1.07
103 | G10A G23A | -4.78
104 | U9G U14A G52C | -0.345
105 | G10C C72U | -1.32
106 | G10U C11G | 0.195
107 | G10A A29G A43U C70U C89A | -4.19
108 | G10A C22U C34U C72A C115G A121C G122U | -8.04
109 | U9G C80U C98U G110U | -3.68
110 | C11A C72A C101A U126C | -3.38
111 | G10C G69U G107C G120U | -2.44
112 | G10U G61A C123G | 1.03
113 | G10U C13G C80U G135U | -1.95
114 | U9G C104U C124U | 1.88
115 | G10A C13U G45U G117A | -0.718
116 | G10U U109A | -4.67
117 | C11A A46C G63A U131G | -2.39
118 | U9G G35U | -4.99
119 | G10C G61U U109C | -5.18
120 | G10A C73U A84U G110U | -2.38

Row | Variant | polymerase ribozyme fitness (log ratio)
121 | G10A G19A C114U U133G | 0.465
122 | G10C A74G | -1.26
123 | G10A G48A G63U C82G A91U G117C | -5.31
124 | G10A G39U G51A C70U | -5.24
125 | C11A A95G | -1.37
126 | G10C G39A G61A | -1.27
127 | C11A C94A U116A G120C | -0.809
128 | G10U C13A A16U G110C U125A | -6.47
129 | U9G G77U C123U | 1.93
130 | G10U C31G G39C C64U G110A G113U | -6.42
131 | G10A U130C | 0.4
132 | U9G U54G G58C C73U | -0.715
133 | G10C A16G A26U C72U C98U C115G | -6.74
134 | C11A A18U A26G G39U G42A G45A G60A U133A | -6.17
135 | G10A G69U C79U C98A | -2
136 | G10U G60C G69U A108G | -4.87
137 | G10C U106C G107C | -5.64
138 | U9G C86A C114A | -0.649
139 | G10U C13U C70A | -0.716
140 | G10U C62U C72A C88U C89G A121G U132C | -1.87
141 | U9G G51C C56G C62U C80G A119U | -0.0854
142 | G10A C70G G120U | -1.35
143 | G10A G51U C56G | -5.12
144 | U9G U21A | -0.191

Row | Variant | polymerase ribozyme fitness (log ratio)
145 | G10A C12G U21C U106G C114G U116A | -6.06
146 | U9G C88U G93C | -0.642
147 | G10A G128U | -2.02
148 | G10A G42A A43U | -1.82
149 | G10A C53U G61C G122A G127U U129A | 0.0511
150 | C11A C72U | -1.58
151 | G10A G61C U87A C123A | -0.382
152 | G10A A29U | -1.77
153 | G10C U38G C53G G63C A111U C124U U133G | -5.15
154 | G10U C53G C70U C86U A119G | -0.267
155 | G10A C13U G42C A46G C101U G110C | -6.91
156 | U9G C62A | -0.542
157 | G10U G77U U78G C114A | -2.65
158 | G10U C13A C72U U109A | -6.62
159 | C11A C13G C115A | -6.59
160 | U9G G110C | -4.11
161 | U9G C40A G69A C76U C114A | -6.98
162 | G10U A27G U59A C98U | -6.42
163 | U9G C56U G65C A105U U109C | -6.39
164 | G10C C15U A41C C53G C89U | -3.28
165 | C11A C13A A74C | -2.72
166 | G10A G44A G63C | -0.955
167 | G10C U38G G42C A121U | -1.8
